According to publication PMC6662825, “The MTR4 helicase recruits nuclear adaptors of the human RNA exosome using distinct arch-interacting motifs” (Nature Communications, 2019):

Tests used:
Assay in all cases: pull-down; GST-tagged MTR4 constructs as bait, Trx-NVL constructs as prey, glutathione sepharose; 10 μM GST-MTR4∆N with 20 μM Trx-NVL constructs; 50 mM Hepes pH 7.5, 150 mM NaCl, 5% glycerol, 0.05% NP40, 1 mM DTT, 30 min at 4 °C; SDS-PAGE, Coomassie
Conditions in all cases: both partners purified
GST-MTR4-∆N = target: T1, GST-MTR4-∆N (human, UniProt P42285 75-1042)
T1 construct: Tag is cleavable with 3C protease; kept for the GST pull-downs; also called GST-tagged MTR4∆N; source: E. coli BL21 star (DE3), purified (Ni-NTA, heparin, SEC); not shown: 6xHis-GST, N-terminal, kept
T1 sequence (looked up): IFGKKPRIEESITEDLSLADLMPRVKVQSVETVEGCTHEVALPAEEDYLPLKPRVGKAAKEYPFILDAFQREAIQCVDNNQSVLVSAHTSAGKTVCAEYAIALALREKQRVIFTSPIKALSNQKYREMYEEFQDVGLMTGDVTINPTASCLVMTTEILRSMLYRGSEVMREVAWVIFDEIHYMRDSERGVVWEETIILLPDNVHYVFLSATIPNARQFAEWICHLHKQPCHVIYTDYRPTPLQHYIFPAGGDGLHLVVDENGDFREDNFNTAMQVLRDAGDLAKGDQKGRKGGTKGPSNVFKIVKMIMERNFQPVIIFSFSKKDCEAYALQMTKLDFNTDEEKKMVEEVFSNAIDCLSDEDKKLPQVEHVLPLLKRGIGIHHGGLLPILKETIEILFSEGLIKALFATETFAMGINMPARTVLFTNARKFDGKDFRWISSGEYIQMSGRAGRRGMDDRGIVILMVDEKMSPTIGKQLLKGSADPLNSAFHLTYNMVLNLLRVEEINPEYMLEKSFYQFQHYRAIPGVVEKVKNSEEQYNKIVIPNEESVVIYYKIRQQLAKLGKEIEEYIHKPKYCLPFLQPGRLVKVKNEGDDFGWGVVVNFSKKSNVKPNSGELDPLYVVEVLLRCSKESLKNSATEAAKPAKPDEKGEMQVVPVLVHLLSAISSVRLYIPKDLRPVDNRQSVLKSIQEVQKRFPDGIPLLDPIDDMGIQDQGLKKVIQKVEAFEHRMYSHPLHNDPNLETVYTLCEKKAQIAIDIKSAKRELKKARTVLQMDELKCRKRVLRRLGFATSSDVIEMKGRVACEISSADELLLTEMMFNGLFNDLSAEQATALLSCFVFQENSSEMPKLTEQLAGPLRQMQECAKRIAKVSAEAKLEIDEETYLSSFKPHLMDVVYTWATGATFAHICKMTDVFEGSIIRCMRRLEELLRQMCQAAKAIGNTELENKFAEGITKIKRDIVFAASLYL

GST-MTR4-KOW = target: T2, GST-MTR4-KOW (human, UniProt P42285 645-787)
T2 construct: human MTR4 KOW domain, residues 645–787; also called GST-tagged MTR4 KOW; source: E. coli BL21 star (DE3), purified (Ni-NTA, heparin, SEC); not shown: 6xHis-GST, N-terminal, kept
T2 sequence (looked up): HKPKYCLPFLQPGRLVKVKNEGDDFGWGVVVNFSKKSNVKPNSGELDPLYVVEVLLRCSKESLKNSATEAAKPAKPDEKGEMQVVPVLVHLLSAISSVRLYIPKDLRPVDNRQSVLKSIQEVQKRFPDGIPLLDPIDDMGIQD

GST-MTR4∆N R743E = target: T3, GST-MTR4∆N R743E (human, UniProt P42285 75-1042, R743E)
T3 construct: also called R743E mutant; source: E. coli BL21 star (DE3), purified (Ni-NTA, heparin, SEC); not shown: 6xHis-GST, N-terminal, kept
T3 sequence (looked up): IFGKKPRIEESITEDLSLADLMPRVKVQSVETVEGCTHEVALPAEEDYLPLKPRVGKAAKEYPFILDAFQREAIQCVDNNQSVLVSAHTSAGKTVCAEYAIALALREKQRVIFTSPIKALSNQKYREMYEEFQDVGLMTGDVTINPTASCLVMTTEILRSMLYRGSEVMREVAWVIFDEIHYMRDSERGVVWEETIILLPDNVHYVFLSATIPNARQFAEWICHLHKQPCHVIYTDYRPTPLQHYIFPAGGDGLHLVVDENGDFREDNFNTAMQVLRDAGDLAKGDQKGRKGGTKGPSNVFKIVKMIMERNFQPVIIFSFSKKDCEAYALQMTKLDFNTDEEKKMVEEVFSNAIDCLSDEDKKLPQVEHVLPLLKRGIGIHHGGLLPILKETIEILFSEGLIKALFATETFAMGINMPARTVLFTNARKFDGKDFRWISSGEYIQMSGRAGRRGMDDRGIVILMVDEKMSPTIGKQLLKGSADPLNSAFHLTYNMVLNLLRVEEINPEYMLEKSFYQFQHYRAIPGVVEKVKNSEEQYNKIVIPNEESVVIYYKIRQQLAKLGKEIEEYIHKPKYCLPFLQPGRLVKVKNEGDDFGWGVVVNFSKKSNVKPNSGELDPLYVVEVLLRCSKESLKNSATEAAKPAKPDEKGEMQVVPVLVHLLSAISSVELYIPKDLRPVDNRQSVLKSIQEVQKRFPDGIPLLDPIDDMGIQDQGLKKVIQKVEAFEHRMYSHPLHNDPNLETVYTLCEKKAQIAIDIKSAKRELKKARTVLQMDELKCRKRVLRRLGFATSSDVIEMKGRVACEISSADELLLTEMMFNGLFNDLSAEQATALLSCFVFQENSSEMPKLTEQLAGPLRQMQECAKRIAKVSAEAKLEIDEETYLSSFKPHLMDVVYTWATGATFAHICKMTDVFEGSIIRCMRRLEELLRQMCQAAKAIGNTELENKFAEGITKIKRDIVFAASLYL

binding result (GST-MTR4-∆N): binds
binding result (GST-MTR4-KOW): binds
binding result (GST-MTR4∆N R743E): binds
B1: Trx-NVL^167–216 (domain or fragment, human, UniProt O15381 167-216, looked up)
chain: KDSEGGWFIDKTPSVKKDSFFLDLSCEKSNPKKPITEIQDSKDSSLLESD
notes: source: E. coli BL21 star (DE3), purified (Ni-NTA, SEC); not shown: 6xHis-Trx, N-terminal, kept
